Reference: US20230357447A1 (JANUX THERAPEUTICS, published 2023)
Read-outs that look alike come from different tables or passages of the source. Ends that are not written are not given here.

What was measured:
[1] = molecular target: T1, Ab-12, anti-PD-L1xCD28 non-masked antibody in Vh format; test: competition ELISA: peptide titrated against 5 nM Ab-12; binding of Ab-12 to captured biotinylated CD28 antigen is read; table prints 'IC50 nM' but the axis is Log [Peptide, uM] and the curve falls between Log 0.5 and Log 2
T1 construct: also called PDL1xCD28 non-masked (Vh)

[2] = molecular target: T1, Ab-12, anti-PD-L1xCD28 non-masked …; test: competition ELISA: peptide titrated against 5 nM Ab-12; binding of Ab-12 to captured biotinylated CD28 antigen is read
[3] = molecular target: T1, Ab-12, anti-PD-L1xCD28 non-masked …; test: as above; remark: listed apart in the source
[4] = molecular target: T1, Ab-12, anti-PD-L1xCD28 non-masked …; test: as above; remark: listed apart in the source
[5] = molecular target: T1, Ab-12, anti-PD-L1xCD28 non-masked …; test: as above; remark: listed apart in the source
[6] = molecular target: T2, anti-CD28 scFv (SEQ ID NO: 9); test: competition ELISA: peptide titrated against 2 nM anti-CD28 scFv; binding of the scFv to captured biotinylated CD28 antigen is read
T2 construct: also called Anti-CD28 scFv (VH-linker 1-VL)

[7] = molecular target: T2, anti-CD28 scFv (SEQ ID NO: 9); test: as above; remark: listed apart in the source
[8] = molecular target: T1, Ab-12, anti-PD-L1xCD28 non-masked …; test: competition ELISA: peptide titrated against 5 nM Ab-12; binding of Ab-12 to captured biotinylated CD28 antigen is read; table prints 'IC50 nM' but the axis is Log [Peptide, uM]
[9] = molecular target: T2, anti-CD28 scFv (SEQ ID NO: 9); test: competition ELISA: peptide titrated against 2 nM anti-CD28 scFv; binding of the scFv to captured biotinylated CD28 antigen is read; remark: listed apart in the source
[10] = molecular target: T2, anti-CD28 scFv (SEQ ID NO: 9); test: as above; remark: listed apart in the source
[11] = molecular target: T2, anti-CD28 scFv (SEQ ID NO: 9); test: as above; remark: listed apart in the source

| Binder | IC50 [1] | IC50 (read off the curve) [2] | IC50 [3] | IC50 [4] | IC50 [5] | IC50 (read off the curve) [6] | IC50 [7] | IC50 [8] | IC50 (read off the curve) [9] | IC50 [10] | IC50 [11] |
| --- | --- | --- | --- | --- | --- | --- | --- | --- | --- | --- | --- |
| GYCHYWGDMVMWCG (cysteine pairing not given here; also: biotinylated, site not given here, also called Peptide-12_200 nM) [Peptide-12] | 21 nM |  |  |  |  |  |  |  |  |  |  |
| MDWCPRERWVDCFF (cysteine pairing not given here; also: biotinylated, site not given here) [Peptide-9] |  | ~2000 nM | 2240 nM | 1860 nM | 2630 nM | ~2000 nM | 1280 nM | 1.54 nM |  |  |  |
| MDWCPRERWVDCFF [Peptide-51] |  |  | 2450 nM | 2430 nM | 2620 nM |  | 1630 nM |  | ~2000 nM | 1370 nM | 1650 nM |
